These results are taken from PMC9408938.

Test [1] deals with T1, Human interferon-gamma receptor chain-1 (human (endogenous in WISH)) (UniProt P15260).
T1 sequence: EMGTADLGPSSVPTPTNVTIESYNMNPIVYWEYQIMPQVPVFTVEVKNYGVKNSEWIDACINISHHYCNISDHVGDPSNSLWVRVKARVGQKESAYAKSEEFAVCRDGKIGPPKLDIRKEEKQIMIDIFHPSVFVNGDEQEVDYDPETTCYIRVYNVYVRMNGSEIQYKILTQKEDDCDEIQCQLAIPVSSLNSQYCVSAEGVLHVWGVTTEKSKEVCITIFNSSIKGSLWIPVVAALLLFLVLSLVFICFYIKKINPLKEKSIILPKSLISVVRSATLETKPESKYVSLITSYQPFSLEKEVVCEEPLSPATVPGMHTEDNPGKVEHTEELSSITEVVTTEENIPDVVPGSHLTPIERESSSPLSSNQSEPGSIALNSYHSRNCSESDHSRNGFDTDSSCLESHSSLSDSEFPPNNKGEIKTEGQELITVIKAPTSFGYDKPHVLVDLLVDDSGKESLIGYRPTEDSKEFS

In test [2] the target is T1, Human interferon-gamma receptor chain-1 (human (endogenous in WISH)). The source holds these as a separate data set.

Chain of Human interferon-gamma (P01579 24-161): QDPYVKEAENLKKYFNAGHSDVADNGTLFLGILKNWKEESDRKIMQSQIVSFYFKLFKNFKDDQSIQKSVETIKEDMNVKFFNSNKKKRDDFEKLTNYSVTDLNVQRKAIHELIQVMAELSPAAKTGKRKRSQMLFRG

Turning to “Human interferon-gamma (from UniProt P01579 24-161) (ligand)”, in test [1], the ratio of pSTAT1 to total STAT1 (Western blot, normalised to β-actin) in hIFN γ-stimulated WISH cells cultured under standard conditions (control) (ratio pSTAT1/STAT1) came to 3.14 and the ratio of pSTAT1 to total STAT1 (Western blot, normalised to β-actin) in hIFN γ-stimulated WISH cells cultured with 30 mM NaClO3 (reduced HS sulfation) (ratio pSTAT1/STAT1) turned out to be 1.7. For the same substance, in test [2], the antiproliferative activity of hIFN γ (15 ng/mL) by modified kynurenine bioassay, optical density at 490 nm, WISH cells cultured with 30 mM NaClO3 came out at 0.051 OD 490 nm; the antiproliferative activity of hIFN γ (15 ng/mL) by modified kynurenine bioassay, optical density at 490 nm, untreated WISH cells came to 0.377 OD 490 nm; the lowering of the biological activity (hIFN γ signal, kynurenine bioassay) in WISH cells cultured with NaClO3 against untreated cells stood at 86%.
